US20100021935A1 (FIBROSTATIN SOCIEDAD LIMITADA, published 2010)

Target: T1, recombinant 77-kDa GPBP expressed from pc-n4′ (human, UniProt Q9Y5P4 1-624)
T1 construct: untagged, transient expression in HEK 293 cells; also called 77-kDa GPBP isoform
T1 sequence: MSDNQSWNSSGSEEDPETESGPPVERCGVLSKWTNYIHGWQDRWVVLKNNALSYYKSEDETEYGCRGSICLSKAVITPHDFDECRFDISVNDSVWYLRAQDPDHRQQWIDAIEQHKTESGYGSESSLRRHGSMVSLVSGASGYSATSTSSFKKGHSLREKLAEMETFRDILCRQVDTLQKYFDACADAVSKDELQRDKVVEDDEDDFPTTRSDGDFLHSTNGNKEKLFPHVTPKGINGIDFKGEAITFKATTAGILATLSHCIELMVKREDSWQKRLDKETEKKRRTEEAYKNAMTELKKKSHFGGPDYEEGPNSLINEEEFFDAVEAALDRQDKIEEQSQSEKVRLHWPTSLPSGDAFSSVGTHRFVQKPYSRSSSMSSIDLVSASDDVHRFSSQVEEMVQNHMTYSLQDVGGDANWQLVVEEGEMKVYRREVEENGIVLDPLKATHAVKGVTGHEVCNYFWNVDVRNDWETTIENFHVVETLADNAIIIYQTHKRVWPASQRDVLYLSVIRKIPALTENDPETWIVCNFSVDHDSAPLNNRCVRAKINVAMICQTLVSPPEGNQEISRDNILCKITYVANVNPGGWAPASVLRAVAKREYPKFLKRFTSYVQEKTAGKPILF
Test: ex vivo cross-linking and FLAG immunoprecipitation
Description: Cells were grown up to 70-90% of confluence in either 150-mm plates (native GPBP) or six-well plates (recombinant GPBP). Cross-linking was performed 48 h after transfection or when cells reached the indicated confluence. Briefly, cells were brought to RT by rinsing with PBS and incubated for 10 min with culture medium containing 1% formaldehyde. The cross-link reaction was quenched with 125 mM Gly-HCl in PBS (pH 7.4) for 10 min at RT. Cells were brought to 4° C. by rinsing with ice-chilled PBS and procedure continued at 4° C. Cells were lysed with 1 or 5 ml (six-well or 150-mm plate) of extraction buffer [16 mM Tris-HCl pH 7.5, 160 mM NaCl, 2 mM ethylenediaminetetraacetic acid (EDTA), 1. […] Eluted samples were boiled with electrophoresis sample buffer (2×) for 15 min to reverse cross-linking and further analyzed by SDS-PAGE and either Coomassie blue staining or Western blot.
This was further assessed by ex vivo cross-linking and FLAG-immunoprecipitation of cells expressing or not expressing BM40-FLAG-α3(IV)NC1, a recombinant exportable form of the human α3(IV)NC1 (16), followed by SDS-PAGE analysis of immunoprecipitates (FIG. 4A). […] To further determine that GPBP indeed interacted with FLAG-α3(IV) in the ER, cells expressing or not expressing BM40-FLAG-α3(IV)NC1 were transfected with pc-n4′ and similarly analyzed (FIG. 4B).

binding result: binds
B1: FLAG-α3(IV)NC1, recombinant exportable human α3(IV)NC1 domain (BM40-FLAG-α3(IV)NC1) (other, not shown: small tags and cut ends)
chain: GLKGKRGDSGSPATWTTRGFVFTRHSQTTAIPSCPEGTVPLYSGFSFLFVQGNQRAHGQDLGTLGSCLQRFTTMPFLFCNVNDVCNFASRNDYSYWLSTPALMPMNMAPITGRALEPYISRCTVCEGPAIAIAVHSQTTDIPPCPHGWISLWKGFSFIMFTSAGSEGTGQALASPGSCLEEFRASPFLECHGRGTCNYYSNSYSFWLASLNPERMFRKPIPSTVKAGELEKIISRCQVCMKKRH
notes: expressed in HEK 293-FLAG-α3(IV) cells; also called type IV collagen
